Test results: PMC3210322 (Nature structural & molecular biology, 2011)
Where a chain is given by its changes, count along the chain named. Numbers in names are those of the source.

B1: α4-N79C, not HA-tagged (natural protein)
chain: MSGYDRALSIFSPDGHIFQVEYALEAVKRGTCAVGVKGKNCVVLGCERRSTLKLQDTRITPSKVSKIDSHVVLSFSGLCADSRILIEKARVEAQSHRLTLEDPVTVEYLTRYVAGVQQRYTQSGGVRPFGVSTLIAGFDPRDDEPKLYQTEPSGIYSSWSAQTIGRNSKTVREFLEKNYDRKEPPATVEECVKLTVRSLLEVVQTGAKNIEITVVKPDSDIVALSSEEINQYVTQIEQEKQEQQEQDKKKKSNH
B2: α4-C32A C46A N79C (natural protein)
chain: B1 chain with C32A, C46A

Molecular target: Rpt2-L437C (S. cerevisiae, UniProt P40327 1-437, L437C)
Assay: cross-linking

Rpt2-L437C, sequence (P40327 whole entry L437C): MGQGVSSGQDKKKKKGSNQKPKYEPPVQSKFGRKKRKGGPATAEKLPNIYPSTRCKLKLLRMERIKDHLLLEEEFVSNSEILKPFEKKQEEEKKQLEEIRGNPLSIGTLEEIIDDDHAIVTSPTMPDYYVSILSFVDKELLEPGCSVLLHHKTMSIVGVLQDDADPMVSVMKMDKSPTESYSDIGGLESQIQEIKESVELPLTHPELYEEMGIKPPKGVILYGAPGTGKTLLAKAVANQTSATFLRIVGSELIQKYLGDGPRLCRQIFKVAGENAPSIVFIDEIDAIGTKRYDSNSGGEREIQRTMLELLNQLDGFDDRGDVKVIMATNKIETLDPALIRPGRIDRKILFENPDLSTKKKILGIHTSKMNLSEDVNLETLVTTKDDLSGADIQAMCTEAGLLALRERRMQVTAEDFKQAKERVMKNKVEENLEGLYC

Binder	binding result
B1	binds
B2	binds
